In patent EP2105446A2:

Columns and labels:
[1] = target: MPL-zalpha11 polypeptide chimera (MPL extracellular and TM domain fused to the zalpha11 intracellular signaling domain), expressed on BaF3 cells (human) (UniProt P40238); test: cell-based or functional assay
[2] = target: factor present in the activated CD3+ selected human T-cell conditioned media (human); test: cell-based or functional assay

proliferation of BaF3/MPL-zalpha11 cells (Alamar Blue) (fold over background) [1] | inhibition of BaF3/Zalpha11 cell growth (Alamar Blue), concentration giving complete inhibition [2] [µg/mL] | titration of soluble receptor, lowest concentration giving complete inhibition of BaF3/Zalpha11 growth [2] [µg/mL] | Substance
10 | – | – | thrombopoietin (TPO) (ligand)
– | 10 | 1.5 | zalpha11-Fc4 (mutant) soluble receptor (zalpha11 extracellular domain fused C-terminally to human IgG/Fc) (from UniProt Q9HBE5 20-237) (Fc fusion)
